{
  "source": "the DeepSol protein solubility set",
  "experiment": "soluble on expression in E. coli; label from the status in PepcDB or PDB records",
  "data": [
    {"sequence": "GPHMASMLEAKFEEASLFKRIIDGFKDCVQLVNFQCKEDGIIAQAVDDSRVLLVSLEIGVEAFQEYRCDHPVTLGMDLTSLSKILRCGNNTDTLTLIADNTPDSIILLFEDTKKDRIAEYSLKLMDIDADFLKIEELQYDSTLSLPSSEFSKIVRDLSQLSDSINIMITKETIKFVADGDIGSGSVIIKPFVDMEHPETSIKLEMDQPVDLTFGAKYLLDIIKGSSLSDRVGIRLSSEAPALFQFDLKSGFLQFFLAPKFNDEGSNSQSNGSGALEAKFEEASLFKRIIDGFKDCVQLVNFQCKEDGIIAQAVDDSRVLLVSLEIGVEAFQEYRCDHPVTLGMDLTSLSKILRCGNNTDTLTLIADNTPDSIILLFEDTKKDRIAEYSLKLMDIDADFLKIEELQYDSTLSLPSSEFSKIVRDLSQLSDSINIMITKETIKFVADGDIGSGSVIIKPFVDMEHPETSIKLEMDQPVDLTFGAKYLLDIIKGSSLSDRVGIRLSSEAPALFQFDLKSGFLQFFLAPKFNDEGSNSQASNSGALEAKFEEASLFKRIIDGFKDCVQLVNFQCKEDGIIAQAVDDSRVLLVSLEIGVEAFQEYRCDHPVTLGMDLTSLSKILRCGNNTDTLTLIADNTPDSIILLFEDTKKDRIAEYSLKLMDIDADFLKIEELQYDSTLSLPSSEFSKIVRDLSQLSDSINIMITKETIKFVADGDIGSGSVIIKPFVDMEHPETSIKLEMDQPVDLTFGAKYLLDIIKGSSLSDRVGIRLSSEAPALFQFDLKSGFLQFFLAPKFNDEE", "values": [
      {"measurement": "soluble on expression in E. coli", "result": "soluble"}
    ]},
    {"sequence": "MYEIIRMGVRNMLITFHSKVAAEVLMRTDDAAPLLRAAGKSFRDAIPERGVFTADQLQSAITGLERAIAAADRSPPDDDEPHPDKEPVHPIELAVGLHQRAFPLLDMMRKTAAAGADLTWEVSRGW", "values": [
      {"measurement": "soluble on expression in E. coli", "result": "not soluble"}
    ]},
    {"sequence": "MGSDKIHHHHHHMTRSEAQGRLTGLAPVSVIDIGSNSVRLVVYEGLSRAPAVLFNEKVLCGLGKGLALTGRMHEEGVTRALMALRRFHVLSEQAQAQKLYVLATAAAREAENGPDFIREAEAILGCEIEVLSGEKEALYSAYGVISGFYQPDGIAGDLGGGSLELIDIKDKSCGEGITLPLGGLRLSEQSDGSLEKAATIARKHVKSFAKLLAAGEGRTFYAVGGTWRNIAKLHMEISGYPLHMMQGYELPLEEMLNFLEEVIVSRDSKDPAWQAVSKNRRSLLPFGAIAMREVLRAMKPAKIAFSAQGVREGYLYSLLTEAERESDPLLVAADELAILRARSPEHARELADWSGRTFPVFGIDETEEESRYRQAACLLADISWRAHPDYRGLQALNIIAHSSFVAITHPGRAYIALANYYRFEGLNDNGTTEPLAAMAGERLQELGKLLGGLLRVVYLFSASMPGVVDHLKFRKSDNPDIDLEFVVPHDYCDFAGERLDGRLQQLAKLTGKRLAFVFE", "values": [
      {"measurement": "soluble on expression in E. coli", "result": "not soluble"}
    ]},
    {"sequence": "MSLVTLGEGFEKARLTRFLEKFGGNEGSQFLYLKDYGHFYYQEEGEDQVLFGFQMKFNKCFVLADPIGQREKWTAATLAFMDQADLLGYQLVFYRISEEYVMNLHDCGFEFMKVGEEGLIQFDEPSTVNQTAWTETVTEKIAAEAADFQFEFYPETISDALYQELERVSADWSRNQKERYFIGGRLDPEYLKCSSVGLVRQKQTVIGFITGKEMEKGKSISYDLLRIRSDAPAFTREYLFTHFIETYQQQGYQLIDIGMAPLANVGESKYSFLKERFVNIFYKYSYQIYAFQDTRKRKEQYVTSWQPRYFAYPKRTSVLFAFVQLSLLITKGRHQSVSLVEEAMTEIEGHHHHHH", "values": [
      {"measurement": "soluble on expression in E. coli", "result": "soluble"}
    ]},
    {"sequence": "MGSDKIHHHHHHVTDSDSQPVNEFPIAPPAPRKGRGAVTNLQGRYEVDQREAIDDGWLSLAEDDDEPKVLRTQVFEERAKTILTRNASPDIPFGVSLNPYRGCEHGCIYCFARPTHSYLGLSPGLDFESRIYAKVNAPELLERELSKKSYVPEPIALGVNTDAWQPAERDLQLTRRVIEVLSERHHPFAAITKSSLIERDLDLLAPMAARGQFMAAITITTLDAGIARTLEPRAATPSRRLRTIRTLSEAGIPVGVSIAPVIPFVTEPDMERVLEACAEAGASNASYIVLRLPWEVAPLFKDWLAAYFPDRAERVMGRVRDMRGGKDYDSSFSTRMKGEGLWADLLKQRFHKAVRRLGLNRRDRGILDMSHFRRIEPPRAGQPARNDSQLDLF", "values": [
      {"measurement": "soluble on expression in E. coli", "result": "not soluble"}
    ]},
    {"sequence": "QGRYTTDDGYIFNASDIIEDTGDAYIVPHGDHYHYIPKNELSASELAAAEAFLSG", "values": [
      {"measurement": "soluble on expression in E. coli", "result": "soluble"}
    ]},
    {"sequence": "MCGRIAQKSAPEDYVEILWPNARLIFDDVAGPRYNIPPGTRPLTMHRLVDQAEALARLPWGYKPHGSSFFMINAKLETIERHGWPWKLMIGTGRILVPADGWYEWKALDSGPKPAKQPYYIHGDAPLLFAGLSAWRRGAELDEAHGFAIVTNDALGGMVDVHDRRPVALPPELAREWVDPATPVARAKEILRAGLPETAFSWYPVRQEVGSSKYQLPDAVDPLLEHHHHHH", "values": [
      {"measurement": "soluble on expression in E. coli", "result": "soluble"}
    ]},
    {"sequence": "MGSDKIHHHHHHMEETAETPAAVIPPPPPEDEPAELPATLGFVSHQPVMDRQQRVVAYDFFVRQGKRNIEAGKQQEFDRLLLATLHNMDIFRLLAYRRAFVHIAMTSLDDPQLRGMPAGSVIFVLEPLPGMVVAEHMLRQLDELQKLGLRFALEPAAYDQNMLSPALQADLFSRVDFMVLDFAGPSTRVLAPILDQLPKRYPGARWLARNVGTAEDMDVCLRAPGHNRFALFHGPFVTTAHALEGGKVDTNQTRVLQIMRLLRTNADPKEVEAQFKLDSVLLFKLLRFINSPIHGLSRKVQTIEETLLLLGRETLFKWLSMLLFTSRKEDGTALSLLEKSLIRARFMEKLGGYRGNKLEAEHLFLTGMFSLLDVLLNQPFPDVLDPLELPLTVREAVVERKGIFAPHLALAMACEQGDNVQIEALAKVLDFDLDLANQYYLDSVVWAQVVLRDSEVHNNVEAV", "values": [
      {"measurement": "soluble on expression in E. coli", "result": "not soluble"}
    ]},
    {"sequence": "SLQEAETAARLHEVHGSWQLACAAAAKKDSADAASSTGGETKPPCAIAQVQLEEKTRKLVVSVEFRLDDAATPDRLNGTMVLPFGLAVTKLFSVKSGNMRLQEVQVSTCLPVGCIVSFTPFIELVSALKAEQTLTIEAPDLQGRIVSFQLQGKGFPEALKRLGEVR", "values": [
      {"measurement": "soluble on expression in E. coli", "result": "not soluble"}
    ]},
    {"sequence": "EGIRQGVLKTAQNGNGNLIYLTGGMATVDHGAFHQGKFLTLKMDDSEVVRALPDVKSVAPTAKWKERITVGDRSSWQEPLAVTSEFQSMTNLVPMAGGRWLNPLDQKETRKVVVLGYELAADLFNPNEDFSWFATVTLQVNPVGKKVKIGNEEFTVVGVLEKNSAQIELGDLINYSSFVPLATWKRFHVNGEIGGINVQPQADVDREALAKTIRQVIARKHGASVNDEQVVQVDDMFLKQKSMQQFLIGLQS", "values": [
      {"measurement": "soluble on expression in E. coli", "result": "not soluble"}
    ]},
    {"sequence": "MMARVTPDQALISFRNARILWAGHSESRKAVEQQIESLLTAMEKPADYARQLELQREHLDVLKWQINCAARECIYSQHQLMEACTEDALSNFMQANGAALTSALAPFLKGRGGVDVASRILRNALVRQLAITPPEIAGDYRMILDESGVMPDPMMVRDCQSSYTPAQQLRFQQRLDYINGMQE", "values": [
      {"measurement": "soluble on expression in E. coli", "result": "soluble"}
    ]},
    {"sequence": "MNKFHDIFLELEQQIVQGDYQPGDLLPSENQLVETYNVSRETIRKALNLLINAGYIQKKQGKGSIVLNFKKFNFPISGVTSYKELQQTQHIESHTHVVSLEEIPVERNLAQLTGWTEGAPVWRLVRQREIEGEVDILDIDYLIKEIVPELPKHRAEDSIFDYLENDLGLAISYAQKEITVEPLTEMDKQLIGEVEGNHVVVVRSIMNLEDTRCFGYTESRHRLNKFKFVEFARRRKL", "values": [
      {"measurement": "soluble on expression in E. coli", "result": "not soluble"}
    ]},
    {"sequence": "MHHHHHHSHMHHHHHHSHMSKYAELLAIIEELGKEIRPTYAGSKSAMERLKRGIIHARGLVREALAETERNARS", "values": [
      {"measurement": "soluble on expression in E. coli", "result": "soluble"}
    ]},
    {"sequence": "MLELKPPLVLLSGPAGFGEYLKLMDHRYVGGVLLKTVTLHPKEGNPTPRMADSDFYVINRIGLENPGIHAFVENIPELPVPMIASLGGDSFEEYLEVARVFKKVADRFYAVEFNFSCPNVKEGGLSIVKNAEEWKKLLNTLRKELPDSFLIAKVGVEGIFVEDAAEFVMKTGWDGITLVNTVRGLHFEKDTMILGGLSGPVLKPIALRAVYEVKKRFPELFVIASGGVYSVKDAEEFLKVGADVIGVGSALFKDPGVVEEIGKYLLEVKR", "values": [
      {"measurement": "soluble on expression in E. coli", "result": "soluble"}
    ]},
    {"sequence": "DAFTDQKIRQRYADLPGELHIIELEKDKNGLGLSLAGNKDRSRMSIFVVGINPEGPAAADGRMRIGDELLEINNQILYGRSHQNASAIIKTAPSKVKLVFIRNEDAVNQMA", "values": [
      {"measurement": "soluble on expression in E. coli", "result": "soluble"}
    ]}
  ]
}
